Assay results as given in publication PMC11617104 (Molecular Biology of the Cell, 2024).

How the values were obtained:
[1] = molecular target: G3BP1 NTF2L domain (residues 1-139), wild type (UniProt Q13283 1-139); experiment: differential scanning fluorimetry
[2] = molecular target: G3BP1 NTF2L domain (residues 1-139), V11A (UniProt Q13283 1-139, V11A); experiment: differential scanning fluorimetry
Sequence of G3BP1 NTF2L domain (residues 1-139), V11A (Q13283 1-139 V11A): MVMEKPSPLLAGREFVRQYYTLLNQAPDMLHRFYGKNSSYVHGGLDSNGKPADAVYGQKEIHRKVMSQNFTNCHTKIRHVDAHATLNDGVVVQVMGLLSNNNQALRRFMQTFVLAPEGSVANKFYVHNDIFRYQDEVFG

Sequence of G3BP1 NTF2L domain (residues 1-139), wild type (Q13283 1-139): as the sequence (Q13283 1-139 V11A) above, with A11V counted along it

B1: Caprin-1 peptide (residues 356-386) (peptide)
peptide: RQRVQDLMAQMQGPYNFIQDSMLDFENQTLD
In the case of B1, the “thermal shift (ΔTm) at 50 µM and 100 µM Caprin-1 peptide” value [1] is reported as ~3 °C and the “thermal shift (ΔTm)” value [2] is reported as 1 to 1.5 °C.
